According to publication PMC12416549 (2024):
Positions count from the first letter of the chain named. Names may count otherwise.

T1: TNFR1 (Homo sapiens, UniProt P19438)
T1 chain: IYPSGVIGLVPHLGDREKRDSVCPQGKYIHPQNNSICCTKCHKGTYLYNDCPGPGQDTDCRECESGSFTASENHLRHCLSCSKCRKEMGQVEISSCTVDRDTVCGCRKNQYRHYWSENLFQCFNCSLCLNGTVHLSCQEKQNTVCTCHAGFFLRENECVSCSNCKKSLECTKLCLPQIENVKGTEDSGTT

B1: K11E (designed binder)
chain: SMEEEVEKAAEEYEKKKKEAIEKHLEKLKAKDKEAAERFLKELEEAAKEYAKDEAKTMSEEEAKRRAKKYKEKVLLSELSEEEQKEIKEAEEKLVRTILKYVEEAAK
B2: E91L (designed binder)
chain: B1 chain with E11K, E91L
B3: E44R (designed binder)
chain: B1 chain with E11K, E44R
B4: M2E (designed binder)
chain: B1 chain with M2E, E11K
B5: E12R (designed binder)
chain: B1 chain with E11K, E12R
B6: T97H (designed binder)
chain: B1 chain with E11K, T97H
B7: I87W (designed binder)
chain: B1 chain with E11K, I87W
B8: E82G (designed binder)
chain: B1 chain with E11K, E82G
B9: V95A (designed binder)
chain: B1 chain with E11K, V95A
B10: Y13V (designed binder)
chain: B1 chain with E11K, Y13V
B11: Y101C (designed binder)
chain: B1 chain with E11K, Y101C
B12: E72F (designed binder)
chain: B1 chain with E11K, E72F
B13: Q84M (designed binder)
chain: B1 chain with E11K, Q84M
B14: E81A (designed binder)
chain: B1 chain with E11K, E81A
B15: A105W (designed binder)
chain: B1 chain with E11K, A105W
B16: I98D (designed binder)
chain: B1 chain with E11K, I98D
B17: E60H (designed binder)
chain: B1 chain with E11K, E60H
B18: A106V (designed binder)
chain: B1 chain with E11K, A106V
B19: K48G (designed binder)
chain: B1 chain with E11K, K48G
B20: E60P (designed binder)
chain: B1 chain with E11K, E60P
B21: E54V (designed binder)
chain: B1 chain with E11K, E54V
B22: A90M (designed binder)
chain: B1 chain with E11K, A90M
B23: E62V (designed binder)
chain: B1 chain with E11K, E62V
B24: L75F (designed binder)
chain: B1 chain with E11K, L75F
B25: L40G (designed binder)
chain: B1 chain with E11K, L40G
B26: K16L (designed binder)
chain: B1 chain with E11K, K16L
B27: A36Q (designed binder)
chain: B1 chain with E11K, A36Q
B28: E103Q (designed binder)
chain: B1 chain with E11K, E103Q
B29: R38T (designed binder)
chain: B1 chain with E11K, R38T
B30: E12A (designed binder)
chain: B1 chain with E11K, E12A
B31: A90E (designed binder)
chain: B1 chain with E11K, A90E
B32: E19Q (designed binder)
chain: B1 chain with E11K, E19Q
B33: E91T (designed binder)
chain: B1 chain with E11K, E91T
B34: K73R (designed binder)
chain: B1 chain with E11K, K73R
B35: A35H (designed binder)
chain: B1 chain with E11K, A35H
B36: D32P (designed binder)
chain: B1 chain with E11K, D32P
B37: K17R (designed binder)
chain: B1 chain with E11K, K17R
B38: E22F (designed binder)
chain: B1 chain with E11K, E22F
B39: K18T (designed binder)
chain: B1 chain with E11K, K18T
B40: K41D (designed binder)
chain: B1 chain with E11K, K41D
B41: A46Q (designed binder)
chain: B1 chain with E11K, A46Q
B42: Y70V (designed binder)
chain: B1 chain with E11K, Y70V
B43: L40H (designed binder)
chain: B1 chain with E11K, L40H
B44: E91D (designed binder)
chain: B1 chain with E11K, E91D
B45: A105S (designed binder)
chain: B1 chain with E11K, A105S
B46: K11R (designed binder)
chain: B1 chain with E11R
B47: L99G (designed binder)
chain: B1 chain with E11K, L99G
B48: S59H (designed binder)
chain: B1 chain with E11K, S59H
B49: E7K (designed binder)
chain: B1 chain with E7K, E11K
B50: A10D (designed binder)
chain: B1 chain with A10D, E11K
B51: K29H (designed binder)
chain: B1 chain with E11K, K29H
B52: Y101W (designed binder)
chain: B1 chain with E11K, Y101W
B53: A47T (designed binder)
chain: B1 chain with E11K, A47T
B54: K8A (designed binder)
chain: B1 chain with K8A, E11K
B55: K85S (designed binder)
chain: B1 chain with E11K, K85S
B56: K33S (designed binder)
chain: B1 chain with E11K, K33S
B57: K93T (designed binder)
chain: B1 chain with E11K, K93T
B58: A47W (designed binder)
chain: B1 chain with E11K, A47W
B59: Q84W (designed binder)
chain: B1 chain with E11K, Q84W

Biological target: T1, TNFR1
Test: yeast display SC50

Binder	apparent Kd (screen)
B1	0.446 nM
B2	13.8 nM
B3	0.593 nM
B4	0.956 nM
B5	0.539 nM
B6	0.653 nM
B7	12.5 nM
B8	0.446 nM
B9	6.43 nM
B10	8.56 nM
B11	0.446 nM
B12	0.446 nM
B13	5.84 nM
B14	0.718 nM
B15	13.8 nM
B16	1.86 nM
B17	0.593 nM
B18	2.73 nM
B19	0.49 nM
B20	2.05 nM

Binder	apparent Kd (screen)
B21	20.2 nM
B22	0.446 nM
B23	2.73 nM
B24	0.869 nM
B25	0.446 nM
B26	0.446 nM
B27	0.653 nM
B28	0.49 nM
B29	2.05 nM
B30	0.446 nM
B31	0.49 nM
B32	0.49 nM
B33	7.07 nM
B34	9.41 nM
B35	1.05 nM
B36	8.56 nM
B37	0.653 nM
B38	0.593 nM
B39	1.16 nM
B40	0.539 nM

Binder	apparent Kd (screen)
B41	0.539 nM
B42	22.2 nM
B43	0.49 nM
B44	0.446 nM
B45	0.956 nM
B46	0.593 nM
B47	5.31 nM
B48	0.593 nM
B49	4.39 nM
B50	0.49 nM
B51	0.593 nM
B52	2.73 nM
B53	0.653 nM
B54	0.593 nM
B55	0.593 nM
B56	0.869 nM
B57	0.869 nM
B58	3 nM
B59	12.5 nM
